{"source": "patent US20110293511A1", "about": "“SPECIFIC BINDING PROTEINS AND USES THEREOF” (priority 2009, published 2011)", "key": {"xenograft A431": {"system": "xenograft A431", "experiment": "immunohistochemical analysis on xenograft tumors", "format": "binding, human", "from_the_text": "The murine fibroblast line NR6ΔEGFR was used as immunogen. Mouse hybridomas were generated by immunizing BALB/c mice five times subcutaneously at 2- to 3-week intervals, with 5×10^5-2×10^6 cells in adjuvant. Complete Freund's adjuvant was used for the first injection. Thereafter, incomplete Freund's adjuvant (Difco™, Voigt Global Distribution, Lawrence, Kans.) was used. Spleen cells from immunized mice were fused with mouse myeloma cell line SP2/0 (Shulman et al. (1978) Nature 276:269-270). Supernatants of newly generated clones were screened in hemadsorption assays for reactivity with cell line NR6, NR6wtEGFR, and NR6ΔEGFR and then analyzed by hemadsorption assays with human glioblastoma cell lines U87MG, U87MGwtEGFR, and U87ΔEGFR. Selected hybridoma supernatants were subsequently tested by western blotting and further analyzed by immunohistochemistry. Newly generated mAbs showing the expected reactivity pattern were purified.\nBound antibody was detected using the Dako Envision+ HRP detection system as per manufacturer's instructions. Sections were finally rinsed with water, counterstained with hematoxylin and mounted."}, "EGFR of A431 cells": {"target": "T1, EGFR of A431 cells (Homo sapiens, UniProt P00533)", "T1 construct": "endogenous in cells; host or cells: A431 human squamous carcinoma cells", "experiment": "ELISA of 806 reactivity in A431 lysate with AG1478", "format": "cell-based", "details": "AG1478 0.5 μM and 5 μM, 10 min at 37° C.", "procedure": "Cells were placed in serum free media overnight, then treated with AG1478 for 10 min at 37° C., washed twice in PBS, then lysed in 1% Triton and lysates prepared by centrifugation for 10 min at 12,000 g. […] Plates were then blocked with 10% serum albumin/PBS for 2 hours at 37° C. and washed twice. A 1:20 cell lysate was added in 10% serum albumin/PBS for 1 hour at 37° C., then washed four times. Anti-EGFR(SC-03; Santa Cruz Biotechnology Inc.) in 10% serum albumin/PBS was reacted 90 min at room temperature, the plate washed four times, and anti-rabbit-HRP (1:2000 if from Silenus) in 10% serum albumin/PBS was added for 90 min at room temperature, washed four times, and color developed using ABTS as a substrate."}, "[1]": {"system": "U87MG.DK brain xenografts", "experiment": "intracranial glioma xenograft treatment", "format": "in vivo, nude mice", "details": "i.p. day 0 through 14"}, "HN5 and MDA-468 cells": {"system": "HN5 and MDA-468 cells", "experiment": "binding to cell lines by FACS", "parameters": "species or system human", "details": "HN5 and MDA-468, both cell lines"}, "U87MG brain xenografts": {"system": "U87MG brain xenografts", "experiment": "intracranial glioma xenograft treatment", "format": "in vivo, nude mice", "details": "i.p. day 0 through 14"}, "U87MG.wtEGFR xenografts": {"system": "U87MG.wtEGFR xenografts", "experiment": "s.c. xenograft therapy study", "format": "in vivo, nude mice", "details": "established model; day control animals were sacrificed; 1 mg injections", "procedure": "(§1) Tumor cells (3×10^6) in […] of PBS were inoculated subcutaneously into both flanks of 4-6 week old female nude mice (Animal Research Centre, Western Australia, Australia). […] Treatment was continued for a total of 6 doses, 3 times per week for 2 weeks. In the established model, treatment was started when tumors had reached a mean volume of 65±6.42 mm^3 (U87MG.Δ2-7), 84±9.07 mm3 (U87MG), 73±7.5 mm^3 (U87MG.wtEGFR) or 201±19.09 mm^3 (A431 tumors). Tumor volume in mm^3 was determined using the formula […], where length was the longest axis and width the measurement at right angles to the length (Clark et al. (2000) Therapeutic efficacy of anti-Lewis (y) humanized 3S 193 radioimmunotherapy in a breast cancer model: enhanced activity when combined with Taxol chemotherapy. Clin. Cancer Res. 6, 3621-3628). Data was expressed as mean tumor volume±S.E. for each treatment group. Statistical analysis was performed at given time points using Student's t-test. Animals were euthanized when the xenografts reached an approximate volume of 1.5 cm^3 and the tumors excised for histological examination. This research project was approved by the Animal Ethics Committee of the Austin and Repatriation Medical Centre."}, "U87MG xenografts": {"system": "U87MG xenografts", "experiment": "s.c. xenograft therapy study", "format": "in vivo, nude mice", "details": "1 mg per injection", "procedure": "as §1"}, "[2]": {"target": "T2, EGFR from U87MG.wtEGFR and A431 cells (Homo sapiens, UniProt P00533)", "T2 construct": "endogenous in cells; host or cells: A431 (endogenous, amplified gene) and U87MG.wtEGFR (U87MG transfected with wtEGFR)", "experiment": "immunoprecipitation and Endo H digestion", "format": "binding", "details": "majority / bulk of the material", "procedure": "This possibility was tested by immunoprecipitating the EGFR from different cells lines labelled overnight with ^35S methionine/cysteine and then subjecting the resultant precipitates to Endoglycosidase H (Endo H) digestion. This enzyme preferentially removes high mannose type carbohydrates (i.e. immature glycosylation) from proteins while leaving complex carbohydrates (i.e. mature glycosylation) intact."}, "[3]": {"target": "T3, biotinylated de2-7 specific peptide (Homo sapiens, UniProt P00533, DELINS30-297G)", "T3 construct": "purchased Auspep, Melbourne, Australia; host or cells: chemical synthesis (Fmoc)", "experiment": "ELISA on de2-7 junctional peptide", "format": "binding", "from_the_text": "In the second assay, the biotinylated de2-7 specific peptide (Biotin […] (SEQ ID NO:5)) was bound to ELISA plates precoated with streptavidin (Pierce, Rockford, Ill.). Antibodies were bound and detected as in the first assay."}}, "note": "Where “and” joins values, the source holds several entries; their conditions need not be identical. Equal entries are not always repeated."}
{"molecule": "mAb806: murine IgG2b monoclonal antibody, clone 806, ATCC PTA-3858; VH SEQ ID NO:2, VL SEQ ID NO:4 (antibody, listed as Mus musculus, V domains shown) VH: MRVLILLWLFTAFPGVLSDVQLQESGPSLVKPSQSLSLTCTVTGYSITSDFAWNWIRQFPGNKLEWMGYISYSGNTRYNPSLKSRISITRDTSKNQFFLQLNSVTIEDTATYYCVTAGRGFPYWGQGTLVTVSA VL: MVSTAQFLAFLLLWFPGARCDILMTQSPSSMSVSLGDTVSITCHSSQDINSNIGWLQQRPGKSFKGLIYHGTNLDDEVPSRFSGSGSGADYSLTISSLESEDFADYYCVQYAQFPWTFGGGTKLEIKR", "values": [{"measurement": "Immunohistochemical staining", "setting": "xenograft A431", "value": "pos. (predominantly basal"}, {"measurement": "mAb806 binding in the presence of increasing amounts of AG1478", "setting": "EGFR of A431 cells", "value": "significantly increased"}, {"measurement": "effect on survival", "setting": "[1]", "value": "did not extend survival"}, {"measurement": "FACS staining", "setting": "HN5 and MDA-468 cells", "value": "clearly stained"}, {"measurement": "effect on survival", "setting": "U87MG brain xenografts", "value": "did not extend survival"}, {"measurement": "mean tumor volume", "setting": "U87MG.wtEGFR xenografts", "value": "468±78.38 mm^3 and 500±80 mm^3"}, {"measurement": "effect on xenograft growth", "setting": "U87MG xenografts; established model", "value": "no effect"}, {"measurement": "effect on xenograft growth", "setting": "U87MG xenografts; preventative model", "value": "no effect"}, {"measurement": "Endo H sensitivity of the precipitated EGFR", "setting": "[2]", "value": "sensitive to Endo H"}, {"measurement": "binding to the unique de2-7 EGFR peptide", "setting": "[3]", "value": "Neither mAb806 or the 528 antibody bound to the peptide"}]}
